The RNAGym collection of RNA variant scans (doi:10.1073/pnas.2313332121)

B1: TPR t1 (parent)
chain: GACCAAUCUGCCCUCAGAGCUCGAGAACAUCUUCGGAUGCAGAGGAGGCAGGCUUCGGUGGCGCGAUAGCGCCAACGUCCUCAACCUCCAAUGCAUCCCACCACAUGAUGAUGCCUGAAGAGCCUUGGUUUUUUG

Variants of: B1
Experiment: polymerase ribozyme fitness, log enrichment relative to wild type (log ratio); higher = more active; in vitro selection for triplet polymerase activity
Outline: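 One round of in vitro selection, in triplicate, was applied to PCR-built, transcribed mutant libraries of each subunit of a heterodimeric triplet polymerase ribozyme. The steps were annealing with a biotinylated primer, partner subunit and triplets, incubation frozen at −7 °C, gel excision of extended constructs, streptavidin-bead capture and RT-PCR. Fitness is the logarithm, base 2, of genotype enrichment over wild-type enrichment from inverse-variance-weighted replicate averages of Illumina-sequenced inputs and outputs, keeping genotypes with ≥10 input reads and ≥1 read per output.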

Variant | polymerase ribozyme fitness (log ratio)
U7G G45C G135U | -0.606
C8A C28G C53A U106G | -3.51
C8A C28G C102A U109A | -4.85
U7G G63A | 0.0919
C8A C56A | 0.505
C8A C12U C40U C86U | -0.152
C8A C15A A41C C49A G58U G63U U131A | -3.62
U7G G42C G45A G61C | -3.42
U7G C79U C124A | 2.08
C8A C28G C64U C102A U109A | -4.53
C8A G10A C86U G120C | 1.44
C8A G93A A108G | -2.37
C8A G61A G63A | -6.8
C8A G135U | -0.432
U7G U14G C94A | -0.903
C8A G35C G63A C98A | -6.69
C8A A18G C115A | -4.82
C8A C12U C86G C104A | -1.31
C8G A16C G61C G71A G120C | -6.1
C8A G17A C73A | -2.25
C8A C49U A74C U78C C85A A91U C94U | -3.74
C8A C13U C20A C40A C49A A111G G117A U130C | -5.75
U7G U133A | 0.128
C8A C56U A83U G93A | 0.0132

Variant | polymerase ribozyme fitness (log ratio)
C8A G47C G48A G58A G60U | -1.54
C8A C53A C82A A108U | -5.69
C8A G45A | 0.134
C8A G45U | -0.263
C8A C86G G113A | -1.25
C8A A41C G44U C62U C99U A111U G127A | -7.45
C8A C97A | -4.07
U7G G63C A91U | -2.27
C8A G48U | -0.337
C8A G51U U59A A83U C85G U106A | -6.35
U7G G110C | -3.83
C8A C15A A29U G42U | -3.65
C8A G52A C72G | 0.47
C8A C15G C40A U54G A90G | -2.34
C8A G61A C115U | -0.118
C8A U21C A83G G117A | -1.39
C8A C72U U109G | -3.8
U7G G10U C15A U54A C104A | -3.26
C8A A26U A46C C56U | -2.74
C8A C40U C62A A90C | -3.39
C8A C12G C64U G110U | -0.685
C8A A24U G25U A43G C70G A105C U112G | -7.66
C8A A37C U78G A100C C101A U106G | -5.27
C8A C11G A16U A43C U78C U125A | -1.72

Variant | polymerase ribozyme fitness (log ratio)
U7G C123A | 1.97
C8A G36A C79U U96G C102U | -2.91
C8A G36U U112A G127U | 2.16
C8A A91G | -0.00436
C8A A18U G45C A75U U109A | -6.43
C8A C70U C89A G120A | -0.458
C8A G77A | 0.514
C8A C12G C15U A18U C70U G110U U125G | -5.75
C8A A43C A46U C86U U96A | -3.85
C8A G77U U106G C115G | -1.95
U7G G44A G63C U92A U125A | -4.07
U7G G120U | 0.729
C8A U32C C49A | 0.0595
C8A C34A G42U | -4.61
U7G G10U G42U A46C U54A G57A C101U C114U | -4.29
C8A A43C | -1.76
C8G A18C C89A | -0.827
C8A A18C | -1.93
C8A C20U G60A C88A | -1.93
C8A U9A A50U C80U A84C | -2.54
U7G U14G C34G C72U | -5.84
C8A U132A | 0.369
C8A C34A A37U C104U | -1.95
C8A A16G C56A C73A | -0.741

Variant | polymerase ribozyme fitness (log ratio)
U7G G36U C80U U92G C123U | -4.24
C8G A26U G52A G63C | -4.29
U7G U116G | -1.53
C8A U21A C34G U109G | -6.49
U7G G39U C49U | -0.696
C8A C20G G61A | -4.4
U7G C73G C89A C104U A119U | -2.52
C8A G77U C82A | 0.031
U7G U21A A26G G47U C123U U129A U133G | -3.24
C8A A90U | -0.513
U7G G52U G57C C102A A111C | -2.69
C8A U109A | -4.14
C8A A74U C104A C124G | -0.357
C8A G44C G57C G117C U126A | -5.88
C8G A18C C40U C72A C123G | 0.381
C8A G17C G63U U96C C97A G113U | -6.74
C8G A16G C56G A83C | 0.0154
C8A A84U C102A | -1.91
C8A G36U G42A | -3.09
C8A G44U G52A C72A | -0.705
C8A A29U U55G | -1.42
U7G G93U G113A | -1.85
C8A G60U C104G C124U | -5.09
C8A G42A C73U | -1.21

Variant | polymerase ribozyme fitness (log ratio)
U7G G45C G77A C82A C98A | -6.73
U7G G10A G45U U96G G117U | -2.43
U7G U106C | 1.03
C8G A24C U38G G44A G63A C88U A95C G117U | -7.47
C8A U54A C62U G110U U125C | -1.99
U7G G60C | -0.367
C8A G36C G60U | -0.605
U7G U38G U54C C56U G110A G122U | -3.58
C8A U129C | -1.05
C8A A26U C89G C94U C124G U125G G127U | -3.87
C8A C34U C53U C62G U109A | -6.27
U7G G10A C49U U112G G135U | -0.92
C8A G36A G57A G61A C72G | -1.48
C8A C28G | -2.05
U7G C79A C99U | -5.33
C8A C13G A46U | -1.07
C8A U55G C114A C115U | -2.83
C8A G69U C99A G120A G122A | -1.73
C8A G19C C82A | -1.97
C8A U96C U116G | -0.0172
C8A C53A G69U A119G U131A U134G | 1.54
C8A U38A A46C C72U | -1.72
C8A C13G | -0.0841
U7G G10C G45U C62A C115U | -3.58

Variant | polymerase ribozyme fitness (log ratio)
C8A C86U G110A G120U | 0.0948
C8A U87A G107C | -4.36
C8A U38A G42U G45A G61U | -1.89
U7G G57A C94A C99U A121C | -5.61
U7G U38C G45U C97U U133G | -2.84
C8A C56U G69C U112A G120A | -7.42
C8A C13U U55G G93A | -0.498
U7G U106G G117U | -3.33
U7G U21C U59G G63A U116G C124G U131A | -5.19
C8A C12U G45U C62U C94G | -1.01
C8A G45U C56U C73U A84C A95U | -1.85
C8A U55C C79G C94A | -3.64
C8A C12A C34U C56G G71A G77A | -4.02
C8A A50C C97G | -4.72
U7G G63A C102U | -3.01
C8A C104A A105C C124G U126G | -3.52
U7G G45C C72G C82A C98A | -5.33
C8A C64U C104A G120A | 0.21
C8A C64A | -5.69
C8G A18U C22G G117U | -2.97
C8A A68G C73G U78G C101U U112A | -5.78
C8A A24C C31U U38A G45U C56G C70G C80A A111U G117C | -6.01
C8A U9G A41G G69U | -0.102
U7G G39A G58A G69C C97U | -1.38

Variant | polymerase ribozyme fitness (log ratio)
C8A G39A G44C C82U C86U G127C | -2.71
C8A U133A | 0.119
C8A G42A G60U A121C | -0.202
C8A C72G | 0.254
C8A G44A A105G | -3.51
C8A G35A C123A | -1.9
C8A C49U A100U G120A | 0.731
C8A C34G G117C | -6.88
C8A C15A A29U G42U C72G C114U | -4.6
C8A C12A U78G | -0.297
C8A G61C | -0.912
C8A G61U | -0.146
C8A C11U A121U | 2.14
C8A C40G C88A A111C | -1.02
C8A U130G | 0.269
C8A C22G A121U | -1.6
C8A C53A U92A A121U | -1.12
C8A A43G C70U | -2.74
C8A C12U A43U G51U C56U U81C C85A C97A A111G | -6.23
U7G C101G A121C | -0.603
U7G U14A C56U U78C A84C C101A | -1.53
C8A G113U | -1.81
C8A C40U A90C | -0.703
